Biological target: purified bovine arrestin3 (bovine, UniProt P32120 1-420)
Experiment: pull-down

Chain of purified bovine arrestin3 (P32120 whole entry): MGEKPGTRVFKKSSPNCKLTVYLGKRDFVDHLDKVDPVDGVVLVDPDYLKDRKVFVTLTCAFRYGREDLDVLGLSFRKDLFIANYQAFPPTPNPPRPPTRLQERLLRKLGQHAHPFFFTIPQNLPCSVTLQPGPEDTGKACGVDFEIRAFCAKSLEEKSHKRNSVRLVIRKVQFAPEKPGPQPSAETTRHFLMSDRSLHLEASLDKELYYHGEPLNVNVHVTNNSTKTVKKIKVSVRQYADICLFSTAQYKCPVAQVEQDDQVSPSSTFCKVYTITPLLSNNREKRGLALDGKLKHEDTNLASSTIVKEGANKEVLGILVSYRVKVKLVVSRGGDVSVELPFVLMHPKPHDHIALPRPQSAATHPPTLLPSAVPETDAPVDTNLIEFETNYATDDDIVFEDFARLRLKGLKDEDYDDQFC

Kd [nM] | Binder
242 | SIDRYTAVAMPMLYNTRYSSKRRVT (domain or fragment, rat, UniProt P61169 129-153, looked up) [GST-D2-IC2]
1100 | SIDRYTAVVMPVHYQHGTGQSSCRRVA (domain or fragment, rat, UniProt P19020 125-151, looked up) [GST-D3-IC2]

— paper PMC2606909 (Molecular pharmacology, 2008)
